Experimental data reported in the DeepSol protein solubility set.

assay: soluble on expression in E. coli; label from the status in PepcDB or PDB records

Sequence	soluble on expression in E. coli
MISSWEQKNNCVMPEDVRNFYLMTNGFHMTWSVKLDDHIIPLGSMVINGISKLTQLIQSSVYSLPNAPTLADLEDDSQEGNEDHQLEKPHFDCRSAIFELDSCGGNGKVCLVYKNGKPGLAHDTEIWFLDRALYWHFLTDTFTAYYRLLITHLGLPQWQYAFTSYGISPQAKQWFSMYKPITYNTSLLTEEPDTFVNKLDPSKVFKSKNKILIPKKKGPVQPVSGQKGPGPLAPPTSKPSAGCGNPVRK	not soluble
MSLSTELDFEKPIRDLKGKIEELRTFTEEKEIDLSDEIEKLEKRLHALEENIYGNLKPWQRVQIARHGERPTTLDYIEQLFSDFLEMHGDRLYGDDEAIVAGIAKYKGQPVTVIGHQRGKDTKENIRRNFGMPHPEGYRKALRLMKQAEKFHRPVICFIDTKGAYPGKAAEERGQSEAIARNLLEMAGLKVPIVCIVIGEGGSGGALALGVGDRIHMLENSTYSVISPEGAAALLWKDASQAQRAAETMKITAPDLKELQIIDDIIPEVRGGAHRNVAEQAEAIDQVLEKSLKQLSSLTTEELLNKRYEKYKKIGEFSHVNDAISVNEGHHHHHH	soluble
VGLIEKQKVQDSDFIEHKEVGLLISHDGIYFKFEPEQLAKHLVEFKSEQDQLIFGGVVQNSDYFFMVTSLGNIITVPIYKTLSNTKTKMNELLAKKPILMEDEKLVLAGIVNPDKME	soluble
MTVSSHRLELLSPARDAAIAREAILHGADAVYIGGPGFGARHNASNSLKDIAELVPFAHRYGAKIFVTLNTILHDDELEPAQRLITDLYQTGVDALIVQDMGILELDIPPIELHASTQCDIRTVEKAKFLSDVGFTQIVLARELNLDQIRAIHQATDATIEFFIHGALCVAYSGQCYISHAQTGRSANRGDCSQACRLPYTLKDDQGRVVSYEKHLLSMKDNDQTANLGALIDAGVRSFKIEGRYKDMSYVKNITAHYRQMLDAIIEERGDLARASSGRTEHFFVPSTEKTFHRGSTDYFVNARKGDIGAFDSPKFIGLPVGEVVKVAKDHLDVAVTEPLANGDGLNVLIKREVVGFRANTVEKTGENQYRVWPNEMPADLHKIRPHHPLNRNLDHNWQQALTKTSSERRVAVDIELGGWQEQLILTLTSEEGVSITHTLDGQFDEANNAEKAMNNLKDGLAKLGQTLYYARDVQINLPGALFVPNSLLNQFRREAADMLDAARLASYQRGSRKPVADPAPVYPQTHLSFLANVYNQKAREFYHRYGVQLIDAAYEAHEEKGEVPVMITKHCLRFAFNLCPKQAKGNIKSWKATPMQLVNGDEVLTLKFDCRPCEMHVIGKIKNHILKMPLPGSVVASVSPDELLKTLPKRKG	soluble
MGSDKIHHHHHHMEPAGVYAKNVQIDRELSQRLHGALTCGKEELFQVVADPAPDVIRAALRNPAMDENHLLVLLGRRDLGEDLVAAIGRHDAVAESHKLKAALVRNPATPAQLVMSLLPHLYLFELVDLCLLAGVTPDQRVAAERAVIQRLSTTPLGNKITLARRATASILDALLKESDVRVVESCLTNPRLKEGSVFQLVSSSRATGDVIAAVARHQCWSNRPNLKAAMLKNPNTPTSLFSTLLASAPTMEVRNLAASGRLGTERKRLAAQELKRRGC	not soluble
MTGIYYLYLRQDDPKKATMRKLERFGLAKRVDIKGVGLKLVLTPYADIFLSREDAVLYEKYGLCVIEGSWNKIDSIKSLKFRIERRLPALLAANPVNYGKIGILSSVEATAAALYIIGYWDTAYALLSKFSWGLNFIKLNENPLNEYSTADRSEIKKIEESYFGLEHHHHHH	soluble
MGSDKIHHHHHHMTTDLEQQFEFLTEIERLREVERQNLLLDGSRVENSAEHSWHLALYALVFAPYAPSDVSITRVIEMLLLHDIVEIDVGDHPIDEPTDWEAVAQAEDRAQRRIFGLLPEAQGHRLQALWQEFEAAHTADARFAKSLDYCQPIFQTLCAVSPPADHLRVVRENLTTGRATSLRERFPEAYAAACSLIDGQTVSDPDFAARLAFLSEADRLKSVLRASRIASGTRYENSAEHSWHIMLYGWILAPHSLSEVDVSRVLKMLLLHDLVEIDAGDVPIHSNLDAAALRQIEETEKAAAERIFGLLPDAQAKDCLMIWQEFEAAQSADAVFAKSIDRVQPVLLNIATGGGSWVAYDVTLPQLETRVGVKIARGAPKVWDHVRALLLPWFTAQGRL	not soluble
MGHHHHHHSHMKTRQAFYLHTTKLTRIARRLCREILRPWHAARHPYLPINSAAIKAECTARLPEASQSPLVLKQAVRKPLEAVLRYLETHPRPPKPDPVKSVSSVLSSLTPAKVAPVINNGSPTILGKRSYEQHNGVDGNMKKRLLMPSRGTYLGLANHGQTRHMGPSRNLLLNGKSYPTKVRLIRGGSLPPVKRRRMNWIDAPDDVFYMATEETRKIRKLLSSSETKRAARRPYKPIALRQSQALPPRPPPPAPVNDEPIVIED	not soluble
